Data from patent US6512102B1, “Compositions and methods of diagnosis and treatment using casein kinase I” (Chiron Corporation, priority 1998, dated 2003).

B1: Wnt-1: Wnt-1 expressed from transfected plasmid (protein, UniProt P04628 28-370, looked up)
Proto-oncogene Wnt-1: ANSSGRWWGIVNVASSTNLLTDSKSLQLVLEPSLQLLSRKQRRLIRQNPGILHSVSGGLQSAVRECKWQFRNRRWNCPTAPGPHLFGKIVNRGCRETAFIFAITSAGVTHSVARSCSEGSIESCTCDYRRRGPGGPDWHWGGCSDNIDFGRLFGREFVDSGEKGRDLRFLMNLHNNEAGRTTVFSEMRQECKCHGMSGSCTVRTCWMRLPTLRAVGDVLRDRFDGASRVLYGNRGSNRASRAELLRLEPEDPAHKPPSPHDLVYFEKSPNFCTYSGRLGTAGTAGRACNSSSPALDGCELLCCGRGHRTRTQRVTERCNCTFHWCCHVSCRNCTHTRVLHECL
B2: CKI lys→arg 38: kinase-inactive CKIε construct in which lysine 38 in the kinase domain was mutated to arginine (protein)
chain: MELRVGNKYRLGRKIGSGSFGDIYLGANIASGEEVAIRLECVKTKHPQLHIESKFYKMMQGGVGIPSIKWCGAEGDYNVMVMELLGPSLEDLFNFCSRKFSLKTVLLLADQMISRIEYIHSKNFIHRDVKPDNFLMGLGKKGNLVYIIDFGLAKKYRDARTHQHIPYRENKNLTGTARYASINTHLGIEQSRRDDLESLGYVLMYFNLGSLPWQGLKAATKRQKYERISEKKMSTPIEVLCKGYPSEFSTYLNFCRSLRFDDKPDYSYLRQLFRNLFHRQGFSYDYVFDWNMLKFGAARNPEDVDRERREHEREERMGQLRGSATRALPPGPPTGATANRLRSAAEPVASTPASRIQQTGNTSPRAISRADRERKVSMRLHRGAPANVSSSDLTGRQEVSRLAASQTSVPFDHLGK
modifications: Mus Casein Kinase I epsilon

Experiments:
[1] = tested on: Lef-1 reporter gene activity; assay: Lef-1 reporter gene assay in 293 cells after antisense transfection; assay type: cell-based; conditions: Wnt-1 expressed in 293 cells
Description: FIGS. 4A-C Lef-1 reporter gene activity induced by Wnt (A), Dv1-3 (B), or mutant β-catenin (C) is inhibited by CKIε antisense polynucleotides (CKI-a and CKI-b), but not by the reverse sequence control (RC). 293 cells were plated at a density of 1.5*10^5 cells per 12-well dish 16 hours prior to transfection 6 ul 0.5 mM cationic lipitoid and 2 ul 100 uM polynucleotide in 50 ul opti-MEM (Life Technologies) was mixed together and added dropwise to cells in 1 ml of fresh media. After 24 hours cells, cells were washed with opti-MEM and transfected with luciferase reporter plasmids (0.02 mg lef-1, 0.2 lef-1 reporter, 0.03 mg renilla luciferase) control using lipofectamine (Life Technologies). Cells were assayed for luciferase activity 48 hours after transfection of antisense polynucleotides.
One method for measuring activation of gene expression by the Wnt pathway is to use the Lef-1 reporter gene assay. Antisense polynucleotides were transfected into cells by using cationic peptoid reagents followed by transfection with Lef-1, Lef-1 reporter, and Wnt-1 plasmids using lipofectamine (Life Technologies). Lef-1 reporter gene activity was measured using the Dual-Luciferase Reporter Assay System (Promega) according to the manufacturers specifications. […]

[2] = tested on: Lef-1 dependent transcription; assay: Lef-1 enhancer luciferase reporter assay in Cos cells; assay type: cell-based; conditions: for Wnt signal transduction (Lef-luciferase): variant co-transfected with Wnt-1; for signal transduced by dominant negative GSK3 (DNGSK3): variant co-transfected with dominant negative GSK3 and Lef-1; for luciferase activity transduced by Dvl-1: variant with Dvl-1
Description: (§1) Combinations of Wnt-1, CKIε, CKI kinase dead variant (lys→arg 38) and Lef-1 were transfected into Cos cells with a luciferase gene driven by multiple copies of Lef enhancer elements. As an internal control of transfection efficiency, the β-galactosidase gene driven by the SV40 promoter was co-transfected in all samples. 24 hours after transfection, cells were lysed and the lysate was tested for luciferase activity. The luciferase activity was normalized with respect to β-galactosidase activity. […] Dorsoanterior index (DAI) grade numbers were assigned to the phenotypes of the embryos. A grade 5 embryo is normal; a grade 3 embryo is cyclopic (one eye); a grade 1 embryo has a tail fin and somites but no head (acephalic); and a grade 0 embryo has no dorsoanterior structures (Kao et al., 1988).
The effect of CKI on Lef-1 dependent transcription in Cos mammalian cells was examined. A luciferase reporter gene driven by multiple copies of the Lef-I enhancer sequence was used. When only Wnt-I or lef-I or CKIε was transfected with the reporter construct, luciferase activity was induced only 2 to 3 fold (FIG. 1A). When Lef-1 was cotransfected with either Wnt-1 or CKIε, luciferase activity was induced 30 or 12 fold respectively.
Luciferase reporter plasmid contains multiple Lef-I enhancer sites upstream of the fos basal promoter. Various DNA plasmids encoding Wnt-1, CKIε , Dvl-1, GSK3 etc. were co-transfected with a luciferase reporter plasmid and a SV40 β-galactosidase plasmid into 24-well Cos cell culture. For each well, 0.5 μg total DNA was in a ratio of 0.08 μg:016 μg:0.02 μg for signaling molecules:luciferase: β-gal. SV40 β-gal construct was used as an internal transfection control, since β-gal activity is independent of the Wnt-1 signaling molecules. Transfection was done using LT1 (5 μl/μg DNA) (Panvera Co. # MIR23 10). Each sample was transfected in triplex repeats to obtain a statistical value. After 24 hours, cells were washed once with PBS and lysed in 50 μl/well lysis buffer supplied with the luciferase assay kit (Promega cat# EI500). 10 μl of each sample was aliquoted into two sets of tubes, one set for the luciferase assay and another for β-gal chemiluminescent reporter assay (Galacto-Light, TROPIX Inc. #BL100G). The result of the luciferase assay was divided by the corresponding β-gal activity, and then averaged.

[3] = tested on: casein; assay: Kinase activity of construct transfected into Cos cells, casein as substrate; assay type: biochemical; conditions: substrate casein protein
Description: It was transiently transfected into Cos cells and its activity was tested using substrate casein protein.

[4] = tested on: ventralized Xenopus embryo; assay: Rescue of dorsal structure of ventralized Xenopus embryos by injected RNA; assay type: in vivo; conditions: RNA injected into ventralized embryos
Description: as §1
Furthermore, when the variant was co-transfected with CKIε into Cos cells, Lef-1-dependent luciferase activity was inhibited. […] Thus, the variant interferes with Wnt signaling, acting as a dominant negative.

Molecule	stimulation of Lef-1 reporter gene transcription over vector transfected cells [1]	luciferase activity induced ([2]; cotransfected with Lef-1, Cos cells) [fold]	Lef-1-dependent luciferase activity ([2]; variant co-transfected with CKIε)	Wnt signal transduction (Lef-luciferase) [2]	Wnt signal transduction (Lef-luciferase) ([2]; listed as CKIKD)	signal transduced by dominant negative GSK3 (DNGSK3) [2]	signal transduced by dominant negative GSK3 (DNGSK3) ([2]; listed as variant)	luciferase activity transduced by Dvl-1 [2]	luciferase activity transduced by Dvl-1 ([2]; listed as variant)	kinase activity [3]	rescue of embryonic dorsal structure [4]
B1	4-6 fold	30	–	–	–	–	–	–	–	–	–
B2	–	–	inhibited	blocked the Wnt signal transduction in a dose-dependent manner	inhibits Wnt signaling	did not inhibit the signal	did not reduce the signal	inhibited	inhibited the effect of Dv1-1 on luciferase activity	no detectable kinase activity	failed to do so
